{"source": "the supplement of paper PMC9732359", "note": "± gives the uncertainty stated by the source."}
{"experiment": "protein stability index of a GFP-peptide fusion (yeast GPS) (PSI 1-4); higher = more stable; sorted into four equal gates, so the index is relative within each strain", "conditions": "doa10∆", "method_in_brief": "(§1)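 Plasmids in a pooled yeast library fused tiled 17-residue yeast protein peptides downstream of GFP and also expressed Cherry. Mid-log cultures grown without leucine were sorted into four equal gates by GFP/Cherry fluorescence ratio. Each gate's plasmids were PCR-amplified and Illumina-sequenced, and reads were matched to strains by barcodes. The protein stability index is derived by multiplying each gate's read frequency by its gate number and summing the results.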"}
{"sequence": "YLERTLDTFIKIDGNPD [PRE5]", "protein stability index": "2.73 ± 0.098"}
{"sequence": "YLTPPHECRLRDMTYSA [RET1]", "protein stability index": "3.22 ± 0.11"}
{"sequence": "YMDKAKQYDNRITKSNE [LRP1]", "protein stability index": "3.08 ± 0.063"}
{"sequence": "YMKFSNKYLELCKLASN [RRI2]", "protein stability index": "1.64 ± 0.05"}
{"sequence": "YNSVRPFGVSTIFGGVD [PRE10]", "protein stability index": "2.53 ± 0.083"}
{"sequence": "YNTNFNLLLRELNVEKL [SRP72]", "protein stability index": "2.9 ± 0.091"}
{"sequence": "YPEVVTPYNIDRLTQLV [RPO21]", "protein stability index": "2.56 ± 0.2"}
{"sequence": "YPREEEEDYNEFNSIDR [PRP8]", "protein stability index": "3.32 ± 0.09"}
{"sequence": "YPRLQDPSRELNVIIDQ [YCS4]", "protein stability index": "3.2 ± 0.076"}
{"sequence": "YQNQFVEFCRNINSTDK [YML103C/NUP188]", "protein stability index": "3.04 ± 0.11"}
{"sequence": "YQRKRLVTQHKAKYNTP [RPL5]", "protein stability index": "3.21 ± 0.3"}
{"sequence": "YQTKKFYDYIKERSIVV [REC8]", "protein stability index": "2.49 ± 0.058"}
{"sequence": "YREAPVIYRGPEPSHID [RET1]", "protein stability index": "2.83 ± 0.22"}
{"sequence": "YRFFKKISEDPVKALNE [SNF12]", "protein stability index": "3.5 ± 0.19"}
{"sequence": "YRFYEYIYSQETKSWIN [MED1]", "protein stability index": "1.7 ± 0.065"}
{"sequence": "YRRLFAKRLIHGTSTSA [CDC53]", "protein stability index": "1.44 ± 0.11"}
{"sequence": "YSNSHQMAVHIATDGGR [RET1]", "protein stability index": "1.98 ± 0.071"}
{"sequence": "YSVYLIHEIRLNTLNNV [SIR3]", "protein stability index": "1.85 ± 0.089"}
{"sequence": "YTAVDTAKLQMRRFILG [RPN14]", "protein stability index": "1.35 ± 0.27"}
{"sequence": "YTDRDQDEVNKGPAIDE [NNF1]", "protein stability index": "2.12 ± 0.092"}
{"sequence": "YTSIVQCCEFMTMLTPN [YML103C/NUP188]", "protein stability index": "2.13 ± 0.051"}
{"sequence": "YVGNKRLELAGQLISLL [RET1]", "protein stability index": "2.84 ± 0.083"}
{"sequence": "YVKDARKDTVSREVLRY [RPC40]", "protein stability index": "3.64 ± 0.13"}
{"sequence": "YVPTRNTFNYDVKISND [RPN4]", "protein stability index": "1.85 ± 0.068"}
{"sequence": "YWKLWIDEPFNLDFDPR [FAS1]", "protein stability index": "3.52 ± 0.12"}
{"sequence": "YWYFLQKLHKVKKASGE [RPL20A]", "protein stability index": "3.1 ± 0.093"}
{"sequence": "YYSLNIDYHKTAKETKM [RPN11]", "protein stability index": "2.75 ± 0.067"}
{"sequence": "YYYYHPMNAPTPAMIPY [DSN1]", "protein stability index": "2.14 ± 0.047"}
{"experiment": "protein stability index of a GFP-peptide fusion (yeast GPS) (PSI 1-4); higher = more stable; sorted into four equal gates, so the index is relative within each strain", "conditions": "pdr5∆", "method_in_brief": "as §1"}
{"sequence": "YLERTLDTFIKIDGNPD [PRE5]", "protein stability index": "3.2 ± 0.092"}
{"sequence": "YLTPPHECRLRDMTYSA [RET1]", "protein stability index": "3.02 ± 0.12"}
{"sequence": "YMDKAKQYDNRITKSNE [LRP1]", "protein stability index": "2.91 ± 0.056"}
{"sequence": "YMKFSNKYLELCKLASN [RRI2]", "protein stability index": "1.87 ± 0.039"}
{"sequence": "YNSVRPFGVSTIFGGVD [PRE10]", "protein stability index": "2.71 ± 0.068"}
{"sequence": "YNTNFNLLLRELNVEKL [SRP72]", "protein stability index": "3.18 ± 0.11"}
{"sequence": "YPREEEEDYNEFNSIDR [PRP8]", "protein stability index": "3.24 ± 0.1"}
{"sequence": "YPRLQDPSRELNVIIDQ [YCS4]", "protein stability index": "3.09 ± 0.08"}
{"sequence": "YQNQFVEFCRNINSTDK [YML103C/NUP188]", "protein stability index": "2.76 ± 0.088"}
{"sequence": "YQRKRLVTQHKAKYNTP [RPL5]", "protein stability index": "2.8 ± 0.2"}
{"sequence": "YQTKKFYDYIKERSIVV [REC8]", "protein stability index": "2.81 ± 0.054"}
{"sequence": "YREAPVIYRGPEPSHID [RET1]", "protein stability index": "3.07 ± 0.23"}
{"sequence": "YRFFKKISEDPVKALNE [SNF12]", "protein stability index": "3.68 ± 0.2"}
{"sequence": "YRFYEYIYSQETKSWIN [MED1]", "protein stability index": "1.93 ± 0.06"}
{"sequence": "YRRLFAKRLIHGTSTSA [CDC53]", "protein stability index": "1.36 ± 0.11"}
{"sequence": "YSNSHQMAVHIATDGGR [RET1]", "protein stability index": "2.95 ± 0.086"}
{"sequence": "YSVYLIHEIRLNTLNNV [SIR3]", "protein stability index": "1.99 ± 0.067"}
{"sequence": "YTAVDTAKLQMRRFILG [RPN14]", "protein stability index": "1.47 ± 0.093"}
{"sequence": "YTDRDQDEVNKGPAIDE [NNF1]", "protein stability index": "2.01 ± 0.085"}
{"sequence": "YTSIVQCCEFMTMLTPN [YML103C/NUP188]", "protein stability index": "2.03 ± 0.05"}
{"sequence": "YVGNKRLELAGQLISLL [RET1]", "protein stability index": "3.25 ± 0.092"}
{"sequence": "YVKDARKDTVSREVLRY [RPC40]", "protein stability index": "3.2 ± 0.14"}
{"sequence": "YVPTRNTFNYDVKISND [RPN4]", "protein stability index": "2.3 ± 0.065"}
{"sequence": "YWKLWIDEPFNLDFDPR [FAS1]", "protein stability index": "2.84 ± 0.13"}
{"sequence": "YWYFLQKLHKVKKASGE [RPL20A]", "protein stability index": "2.86 ± 0.068"}
{"sequence": "YYSLNIDYHKTAKETKM [RPN11]", "protein stability index": "2.77 ± 0.072"}
{"sequence": "YYYYHPMNAPTPAMIPY [DSN1]", "protein stability index": "2.39 ± 0.05"}
{"experiment": "protein stability index of a GFP-peptide fusion (yeast GPS) (PSI 1-4); higher = more stable; sorted into four equal gates, so the index is relative within each strain", "conditions": "san1∆", "method_in_brief": "as §1"}
{"sequence": "YLERTLDTFIKIDGNPD [PRE5]", "protein stability index": "3.04 ± 0.055"}
{"sequence": "YLTPPHECRLRDMTYSA [RET1]", "protein stability index": "2.76 ± 0.16"}
{"sequence": "YMDKAKQYDNRITKSNE [LRP1]", "protein stability index": "2.97 ± 0.057"}
{"sequence": "YMKFSNKYLELCKLASN [RRI2]", "protein stability index": "1.57 ± 0.092"}
{"sequence": "YNSVRPFGVSTIFGGVD [PRE10]", "protein stability index": "2.59 ± 0.14"}
{"sequence": "YNTNFNLLLRELNVEKL [SRP72]", "protein stability index": "2.89 ± 0.089"}
{"sequence": "YPREEEEDYNEFNSIDR [PRP8]", "protein stability index": "3.1 ± 0.068"}
{"sequence": "YPRLQDPSRELNVIIDQ [YCS4]", "protein stability index": "3.34 ± 0.052"}
{"sequence": "YQNQFVEFCRNINSTDK [YML103C/NUP188]", "protein stability index": "2.6 ± 0.12"}
{"sequence": "YQTKKFYDYIKERSIVV [REC8]", "protein stability index": "2.14 ± 0.058"}
{"sequence": "YREAPVIYRGPEPSHID [RET1]", "protein stability index": "3.21 ± 0.16"}
{"sequence": "YRFFKKISEDPVKALNE [SNF12]", "protein stability index": "2.8 ± 0.23"}
{"sequence": "YRFYEYIYSQETKSWIN [MED1]", "protein stability index": "1.53 ± 0.11"}
{"sequence": "YSNSHQMAVHIATDGGR [RET1]", "protein stability index": "2.35 ± 0.13"}
{"sequence": "YSVYLIHEIRLNTLNNV [SIR3]", "protein stability index": "2.25 ± 0.1"}
{"sequence": "YTAVDTAKLQMRRFILG [RPN14]", "protein stability index": "1.55 ± 0.3"}
{"sequence": "YTDRDQDEVNKGPAIDE [NNF1]", "protein stability index": "1.89 ± 0.13"}
{"sequence": "YTSIVQCCEFMTMLTPN [YML103C/NUP188]", "protein stability index": "1.95 ± 0.062"}
{"sequence": "YVGNKRLELAGQLISLL [RET1]", "protein stability index": "2.7 ± 0.074"}
{"sequence": "YVKDARKDTVSREVLRY [RPC40]", "protein stability index": "3.33 ± 0.071"}
{"sequence": "YVPTRNTFNYDVKISND [RPN4]", "protein stability index": "2.29 ± 0.078"}
{"sequence": "YWYFLQKLHKVKKASGE [RPL20A]", "protein stability index": "3.13 ± 0.049"}
{"sequence": "YYSLNIDYHKTAKETKM [RPN11]", "protein stability index": "2.87 ± 0.053"}
{"sequence": "YYYYHPMNAPTPAMIPY [DSN1]", "protein stability index": "2.49 ± 0.066"}
{"experiment": "protein stability index of a GFP-peptide fusion (yeast GPS) (PSI 1-4); higher = more stable; sorted into four equal gates, so the index is relative within each strain", "conditions": "ubr1∆", "method_in_brief": "as §1"}
{"sequence": "YLERTLDTFIKIDGNPD [PRE5]", "protein stability index": "3.3 ± 0.078"}
{"sequence": "YLTPPHECRLRDMTYSA [RET1]", "protein stability index": "3.14 ± 0.15"}
{"sequence": "YMDKAKQYDNRITKSNE [LRP1]", "protein stability index": "2.94 ± 0.074"}
{"sequence": "YMKFSNKYLELCKLASN [RRI2]", "protein stability index": "1.76 ± 0.037"}
{"sequence": "YNSVRPFGVSTIFGGVD [PRE10]", "protein stability index": "2.57 ± 0.045"}
{"sequence": "YNTNFNLLLRELNVEKL [SRP72]", "protein stability index": "3.26 ± 0.056"}
{"sequence": "YPREEEEDYNEFNSIDR [PRP8]", "protein stability index": "3.27 ± 0.08"}
{"sequence": "YPRLQDPSRELNVIIDQ [YCS4]", "protein stability index": "3.07 ± 0.082"}
{"sequence": "YQNQFVEFCRNINSTDK [YML103C/NUP188]", "protein stability index": "2.92 ± 0.049"}
{"sequence": "YQTKKFYDYIKERSIVV [REC8]", "protein stability index": "2.72 ± 0.047"}
{"sequence": "YREAPVIYRGPEPSHID [RET1]", "protein stability index": "3.36 ± 0.16"}
{"sequence": "YRFFKKISEDPVKALNE [SNF12]", "protein stability index": "3.52 ± 0.086"}
{"sequence": "YRFYEYIYSQETKSWIN [MED1]", "protein stability index": "1.82 ± 0.042"}
{"sequence": "YSNSHQMAVHIATDGGR [RET1]", "protein stability index": "2.73 ± 0.057"}
{"sequence": "YSVYLIHEIRLNTLNNV [SIR3]", "protein stability index": "2.34 ± 0.048"}
{"sequence": "YTAVDTAKLQMRRFILG [RPN14]", "protein stability index": "1.25 ± 0.18"}
{"sequence": "YTDRDQDEVNKGPAIDE [NNF1]", "protein stability index": "2.13 ± 0.14"}
{"sequence": "YTSIVQCCEFMTMLTPN [YML103C/NUP188]", "protein stability index": "2 ± 0.044"}
{"sequence": "YVGNKRLELAGQLISLL [RET1]", "protein stability index": "2.92 ± 0.079"}
{"sequence": "YVKDARKDTVSREVLRY [RPC40]", "protein stability index": "3.21 ± 0.11"}
{"sequence": "YVPTRNTFNYDVKISND [RPN4]", "protein stability index": "2.25 ± 0.056"}
{"sequence": "YWKLWIDEPFNLDFDPR [FAS1]", "protein stability index": "2.27 ± 0.15"}
{"sequence": "YWYFLQKLHKVKKASGE [RPL20A]", "protein stability index": "2.97 ± 0.063"}
{"sequence": "YYSLNIDYHKTAKETKM [RPN11]", "protein stability index": "2.74 ± 0.06"}
{"sequence": "YYYYHPMNAPTPAMIPY [DSN1]", "protein stability index": "2.46 ± 0.039"}
